B1: Hairpin Ribozyme (parent)
chain: GUCCUCUUUCACGUGCGCGUGAAAGAGAGAAGUGAACCAGAGAAACACACGUUGUGGUAUAUUACCUGGUA

The variants in the data set derive from B1. Put plainly: self-cleavage, relative activity (ratio to wild type); higher = more cleavage; co-transcriptional.
GUCCUCUUUCACGUGCGCGUGAAAGAGAGAAGUGAACCAGUGAAACGCACGUUGUGGUAUAUUACCUGGUA [A41U A47G]: the self-cleavage was 0.207.

GUCCUCUUUCACGUGCGCGUGAAAGAGAGAAGUGAACCAGAGAAACAGACGUUGGGGUAUAUUACCUGGUA [C48G U55G]: the self-cleavage is 0.143.

CUCCUCUUUCACGUGCGCGUGAAAGAGAGAAGUGAACCAGAGGAACACACGUUGUGGUAUAUUACCUGGUA [G1C A43G]: the self-cleavage was 0.113.

Regarding GUCCUCUUUCACGUUCGCGUGAAAGAGAGCAGUGAACCAGAGAAACACACGUUGUGGUAUAUUACCUGGUA [G15U A30C], the self-cleavage is 0.173.

As for GUCCUCUUUCACGUGCGCGUGAAAGAGAGAAGUGAACCAGAGAAACACACCUUGUGGUAUAUUACCUCGUA [G51C G68C], the self-cleavage turned out to be 0.322.

For GUCCUCUUUCACGUACGCGUGAAAGAGAGAAGUGAACCAGAGAAACAGACGUUGUGGUAUAUUACCUGGUA [G15A C48G], the self-cleavage was found to be 0.0967.

Take GUCCGCUUUCACGUGCGCGUGAAAGAGAGAAGUGAACCAGAGAAACACACGUUGUGGUGUAUUACCUGGUA [U5G A59G]: the self-cleavage is 0.0492.

In the case of GUCCUCUUUCACGUGCGCGUGAAAGAGGGAAGUGAACCAGAGAAACACACGUUGUGGUAUAUUACCUUGUA [A28G G68U], the self-cleavage is 0.372.

As for GUCCUCUUUCACGUGCGCGUGAAAGAGAGAAGUGAACCAGAGAAACAUACGUUGUGGUAUAUUACCUGGCA [C48U U70C], the self-cleavage came to 0.0914.

Regarding GUCCCAUUUCACGUGCGCGUGAAAGAGAGAAGUGAACCAGAGAAACACACGUUGUGGUAUAUUACCUGGUA [U5C C6A], the self-cleavage was determined as 0.393.

On to GUCCUCUUUUACGUGCGCGUGAAAGAGAAAAGUGAACCAGAGAAACACACGUUGUGGUAUAUUACCUGGUA [C10U G29A], for which the self-cleavage was 0.158.

GUCGUCUUUCACGUGCGCGGGAAAGAGAGAAGUGAACCAGAGAAACACACGUUGUGGUAUAUUACCUGGUA [C4G U20G]: the self-cleavage was 0.22.

With GUCCUCUUUCACGUGCGCGUGAAAGAGAGAAGUGAACGAAAGAAACACACGUUGUGGUAUAUUACCUGGUA [C38G G40A], the self-cleavage turned out to be 0.148.

With GUCCUCUUUCACGUGCGCGUGAAAGAGAGAAGUGGACCAGAGAAACACACGUUGUGGUAUAUUACCCGGUA [A35G U67C], the self-cleavage came to 0.0903.

Consider GUCCUCUUUCACGUGCCCAUGAAAGAGAGAAGUGAACCAGAGAAACACACGUUGUGGUAUAUUACCUGGUA [G17C G19A], for which the self-cleavage amounted to 0.836.

Turning to GUCCUCUUUCACGUGCGCGUGAAAGAGAGAAGUGAACCAGAGAAACACACGUUGUGGUAUAUUACCAGGAA [U67A U70A], the self-cleavage came to 0.237.

GUCCUCUUUCAUGUGCGCGUGAAAGAGAGAAGUGAACCAGAGAAACACACGUUGUAGUAUAUUACCUGGUA [C12U G56A]: the self-cleavage came out at 0.177.

For the variant GUCCUCUUUCACGUGCGCGUGAAAGAGAGAAGUGAACCAGAGAUACACACGUAGUGGUAUAUUACCUGGUA [A44U U53A], the self-cleavage came out at 0.079.

As for GUCCUCUUUCACGUGCGCGUGAAAGAGAGAAGUGAACCAGAGAAACUCACGUUGUGGUAUAUUACGUGGUA [A47U C66G], the self-cleavage was 0.116.

On to GUCCUCUUUCACGUGCGUGUGAAAGAGAGAAGUGAACCAGAGAAACACACGUUGUGUUAUAUUACCUGGUA [C18U G57U], for which the self-cleavage amounted to 0.234.

Take GUCCUCUUUCACGUGCGCGUGAAAGAGAGAAGUGAACCAGAGAAACACACGAUGUGGUAUAUUACCUGGAA [U52A U70A]: the self-cleavage worked out at 0.825.

As for GUCCUCUUUCACGUGCGCGUGAAAGAGAGAAGUGAACCAGAGUAACACACGUUGUGGUAUAUUCCCUGGUA [A43U A64C], the self-cleavage is 0.161.

For the variant GUCCUCUUUCACGUGCGCGUGAAAAAGAGAAGUGAACCAGAGAAACACACGUUGUGGAAUAUUACCUGGUA [G25A U58A], the self-cleavage came to 0.376.

Consider GUCCUCUUUCACGUGCGCGUGAAAAAGAGAAGUGAACCAGAGAAACACACGUUGUGGGAUAUUACCUGGUA [G25A U58G], for which the self-cleavage stood at 0.496.

For the variant GUCCUCUUUCACGUGCGCGUGAAAGAUAGAAGUGUACCAGAGAAACACACGUUGUGGUAUAUUACCUGGUA [G27U A35U], the self-cleavage turned out to be 0.203.

With GUCCUCUUUCACGUGCGCGUGAAAGAGAGAAGUGAACCAGAGAAACACACGUUGUCCUAUAUUACCUGGUA [G56C G57C], the self-cleavage was 0.173.

On to GUCCUCUUUCACGUGCGCGUGAAAGAGAGAAGUGAACCACAGAAACACACGUUGUGGUAUAUUACGUGGUA [G40C C66G], for which the self-cleavage was 0.519.

In the case of GUCCUCUUUCACGUUCGCGUGAAAGAGAGAAGUAAACCAGAGAAACACACGUUGUGGUAUAUUACCUGGUA [G15U G34A], the self-cleavage amounted to 1.33.

As to CUCCUCUUUCGCGUGCGCGUGAAAGAGAGAAGUGAACCAGAGAAACACACGUUGUGGUAUAUUACCUGGUA [G1C A11G], the self-cleavage is 0.194.

With GUCCUCUUUCACAUGCGUGUGAAAGAGAGAAGUGAACCAGAGAAACACACGUUGUGGUAUAUUACCUGGUA [G13A C18U], the self-cleavage came out at 1.1.

Regarding GUCCUCUUUCACGUGCGCGGGAAAGAGAGAAGUGAACCAGAGAAACACACGUCGUGGUAUAUUACCUGGUA [U20G U53C], the self-cleavage was 0.633.

With GUCCACUUUCACGUGCGCGUGAAAGAGAAAAGUGAACCAGAGAAACACACGUUGUGGUAUAUUACCUGGUA [U5A G29A], the self-cleavage turned out to be 0.156.

Regarding GUCCGCUUUCACGUGCGCGUGAAAGAGAGAAGUGAACCAGAGAAACACACGUUGCGGUAUAUUACCUGGUA [U5G U55C], the self-cleavage worked out at 0.121.

With GUCCUCUUUCACGUGCGCGUGAAAGCGAGAAGUGAACCAGAGAAAUACACGUUGUGGUAUAUUACCUGGUA [A26C C46U], the self-cleavage was determined as 0.172.

For GUCCUCUAUCACGUGCGCGUGAAAGAGAGAAGUGAACCAGAGAAACACACGUUGUGGUAUACUACCUGGUA [U8A U62C], the self-cleavage was 0.183.

Consider GUCCUCUUUCACGUGCGCGUGAAAGAGAGAAUCGAACCAGAGAAACACACGUUGUGGUAUAUUACCUGGUA [G32U U33C], for which the self-cleavage came out at 0.222.

With GUCCUCUUUCACGUGCGCGUGAAAGAGAGAAGUGAACCAGAGAAUCACACGUUGUGGUAUAUUACCUAGUA [A45U G68A], the self-cleavage stood at 0.169.

GUCCUCUUUCACGUGCGCGUGAAAGAGAGAAGUGAACCAGAUAAACACACGUUGUGGUAUAUUACCGGGUA [G42U U67G]: the self-cleavage was determined as 0.127.

The values above are taken from the RNAGym collection of RNA variant scans (doi:10.7554/elife.80360).
